System: Bacillus subtilis
Experiment: cleaved RNA product abundance (RNA/gDNA barcode ratio) relative to median wild-type variant (ratio to wild type); higher = more accumulation of the downstream cleavage product
Method in brief: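 Sequencing of barcodes from gel-selected, reverse-transcribed cleaved RNA and from genomic DNA, with UMI collapsing, yielded a per-construct RNA:gDNA ratio. Scaled to the median construct with the unmutated site, this ratio is the cleaved product abundance. The barcoded reporters (truncated aprE or tetM mRNAs with mutagenized RNase Y cleavage-site windows) were integrated into the B. subtilis chromosome, and cultures grew in LB at 37°C from OD600 0.0003 to 0.3.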

[1] = experiment (reporter, strain, medium): exp 8a: truncated aprE reporter, strain BJT201 with 2% xylose (RNase J1 expressed), cleavage site: glnRA (positions -5 to +31 mutated)
[2] = experiment (reporter, strain, medium): exp 4a: truncated aprE reporter, strain BJT201 with 2% xylose (RNase J1 expressed), cleavage site: cggR-gapA (positions -7 to +36 mutated)
[3] = experiment (reporter, strain, medium): exp 2b: truncated aprE reporter, strain BJT200, cleavage site: cggR-gapA (positions -7 to +36 mutated)

| Sequence | cleaved RNA product abundance [1] | cleaved RNA product abundance [2] | also measured |
| --- | --- | --- | --- |
| CGACATGTCCCGCTTCTTTCATTAATGCGTTAGCAACTGTTTTGCTATATACATTTACATTTTAAGAGGAGGAAT | 0.652 |  |  |
| CGACATGTCCCGCTTCTTTCATTAATCCGTTAGCAACTGATTTACTATATACATTTACCTTTTAAGAGGAGGAAT | 0.502 |  |  |
| ACAGACGAAGGAGCCGCAAATAAGTTATTAAGGGATGAATAATCCCTCAATATATATATCTCTCACTTATTTAAA |  | 0.9 |  |
| ACAGACGAAGGAGCCGCAAAGAAGTATTTAAGGGATGAATAATCCCTCAATATAAATATCTCTCACTTATTTAAA |  | 0.288 | cleaved RNA product abundance [3]: 0.275 |
| ACAGACGAAGGAGCCGCAAAGAAGTTATTAAGGGATGAATAACCCCTCAAAATAAATATCTCTCACTTATTTAAA |  |  | cleaved RNA product abundance [3]: 0.208 |
| ACAGACGAAGGAGCCGCAAAGAACTTAATAAGGAATGAATAATCCCTCAATATAAATATCTCTCACTTATTTAAA |  | 0.133 |  |
| ACAGACGAAGGAGCCGCAAAGAAGTTATCAAGGGATGAATAATCCCTCAAAATAAATATCTCTCACTTATTTAAA |  | 0.289 | cleaved RNA product abundance [3]: 0.2 |
| CGACATGTCCCGCTTCTTTCATTAATCCGTTAGCAACTGTTTTCCTATAAACATTTACCTTTTAAGAGGAGGAAT | 0.526 |  |  |
| ACAGACGAAGGAGCCGCAAAGAAGAAATTAAGGGATGAATAATCCCTCAATATAAATATCTCTCACTTATTTAAA |  | 0.185 | cleaved RNA product abundance [3]: 0.171 |
| CGACATGTCCCGCTTCTTTCATTAATTCGTTAGAAACTGTTTTGCTATATACATTTACCTTTTAAGAGGAGGAAT | 0.285 |  |  |
| CGACATGTCCCGCTTCTTTCATTAATCCGTCAGCAACTGTTTTGCTATATACATTAACCTTTTAAGAGGAGGAAT | 0.528 |  |  |
| CGACATGTCCCGCTTCTTTCATTAATCCATCAGCAACTGTTTTGCTATATACATATACCTTTTAAGAGGAGGAAT | 0.507 |  |  |
| ACAGACGAAGGAGCCGCAAAGAAGTTATAAAGGGATGAATAATCCCTGAATATAAATATCTCTCACTTATTTAAA |  | 0.634 |  |
| ACAGACGAAGGAGCCGCAAAGAAGTTATTAAGGGATGAATAGTCCCTCAATATAAATATCTCTCACTTATTTAAA |  | 0.857 | cleaved RNA product abundance [3]: 0.912; cleaved RNA product abundance (experiment (reporter, strain, medium): exp 6: tetM reporter, strain 168, cleavage site: cggR-gapA (positions -7 to +36 mutated)): 1.25 |
| ACAGACGAAGGAGCCGCAAAGAAGTTATTAAGAGATGAATAATCCCTCATTATAAATATCTCTCACTTATTTAAA |  | 0.177 |  |
| ACAGACGAAGGAGCCGCAAAGAAGTTATTAAGGCATGAATAATCCCTAAATATAAATATCTCTCACTTATTTAAA |  | 0.151 | cleaved RNA product abundance [3]: 0.114 |
| CGACATGTCCCGCTTCTTTCATTAATCCGTAAGCAACTGTTTTGCCATATACATTTACCTTTTAAGAGGAGGAAT | 0.295 |  |  |
| CGACATGTCCCGCTTCTTTCATTATTCCGTTAGCAACTGTTTTACTATATACATTTACCTTTTAAGAGGAGGAAT | 0.812 |  |  |
| CGACATGTCCCGCTTCTTTCATTAATCCGTTAGCAACTGTTTTGTTATATACATTTACGTTTTAAGAGGAGGAAT | 0.39 |  |  |
| ACAGACGAAGGAGCCGCAAATAAGTCATTAAGGGATGAATAATCCCTCAATATAAATATCTCTCACTTATTTAAA |  | 0.28 |  |
| ACAGACGAAGGAGCCGCAAAGAAGTTATTAATGGATGTATAATCCCTCAATATAAATATCTCTCACTTATTTAAA |  | 0.211 | cleaved RNA product abundance [3]: 0.0434 |

| Sequence | cleaved RNA product abundance [1] | cleaved RNA product abundance [2] | also measured |
| --- | --- | --- | --- |
| ACAGACGAAGGAGCCGCAAAGAAGATATTAAGGGATGAATAATCCCTCACTATAAATATCTCTCACTTATTTAAA |  |  | cleaved RNA product abundance [3]: 0.149 |
| ACAGACGAAGGAGCCGCAAAGAAGTTATTAAGGCATGAATAATCCTTCAATATAAATATCTCTCACTTATTTAAA |  | 0.13 | cleaved RNA product abundance [3]: 0.115 |
| CGACATGTCCCGCTTCTTTCATTAATCCGTTAGTAACTGTTTTGCTATATACACTTACCTTTTAAGAGGAGGAAT | 0.527 |  |  |
| ACAGACGAAGGAGCCGCAAAGAAATTATTAAGGGTTGAATAATCCCTCAATATAAATATCTCTCACTTATTTAAA |  | 0.365 |  |
| ACAGACGAAGGAGCCGCAAAGAAGTTATTAAGGGATGTATAATCTCTCAATATAAATATCTCTCACTTATTTAAA |  | 0.513 | cleaved RNA product abundance [3]: 0.708 |
| CGACATGTCCCGCTTCTTTCATTAATCCGTTAGCAACTGTTGTGCTATATACATTTACCTTTTAAGAGGAGGAAT | 0.516 |  |  |
| ACAGACGAAGGAGCCGCAAAGAAGTTATTAAGGTATGAATAATCCCTCAAAATAAATATCTCTCACTTATTTAAA |  | 0.115 | cleaved RNA product abundance [3]: 0.108 |
| ACAGACGAAGGAGCCGCAAAGAAGTTATAAGGGGATGAATAATCCCTCAATATAAATATCTCTCACTTATTTAAA |  | 0.49 |  |
| ACAGACGAAGGAGCCGCAGAGAAGTTATTAAGGTATGAATAATCCCTCAATATAAATATCTCTCACTTATTTAAA |  | 0.137 |  |
| CGACATGTCCCGCTTCTTTCATTAATCCGTTATCAACTGTTCTGCTATATACATTTACCTTTTAAGAGGAGGAAT | 0.213 |  |  |
| ACAGACGAAGGAGCCGCAATGAAGTTATTAAGGGATGTATAATCCCTCAATTTAAATATCTCTCACTTATTTAAA |  | 0.25 |  |
| CGACATGTCCCGCTTCTTTCATTATTCCGTTAGCAACTGTTTAGGTATATACATTTACCTTTTAAGAGGAGGAAT | 0.443 |  |  |
| ACAGACGAAGGAGCCGCAAAGAAGTTATTAAGATATGAATAATCCCTAAATATAAATATCTCTCACTTATTTAAA |  | 0.101 |  |
| ACAGACGAAGGAGCCGCAAAGATGTTATTAAGGGATGAATAATCCCACAATATAAATATCTCTCACTTATTTAAA |  | 0.248 | cleaved RNA product abundance [3]: 0.227 |
| ACAGACGAAGGAGCCGCAAAGAAGTTATTAAAAGATTAATAATCCCTCAATATAAATATCTCTCACTTATTTAAA |  |  | cleaved RNA product abundance [3]: 0.104 |
| ACAGACGAAGGAGCCGCAAAGCAGTTAATAAGGGATGAATAATCCCTCAATATAAATATCTCTCACTTATTTAAA |  | 0.298 |  |
| CGACATGTCCCGCTTCTTTCATTAATTCGTTAGCAACTGTTTTGCTATACACATTTACCTTTTAAGAGGAGGAAT | 0.585 |  |  |
| ACAGACGAAGGAGCCGCAAAGAAGTTATTAAGGTATGAATAATCCCTCAATATAGATATCTCTCACTTATTTAAA |  | 0.08 |  |
| CGACATGTCCCGCTTCTTTCATTAATACGATAGCAACTGTTTTGCTATATACATTTACCTTTTAAGAGGAGGAAT | 0.935 |  |  |
| ACAGACGAAGGAGCCGCAAAGAAGTTATGAAGCGATGAATAATCCCTCAATATAAATATCTCTCACTTATTTAAA |  | 0.0897 |  |
| CGACATGTCCCGCTTCTTTCATTACTCCGTTTGCAACTGTTTTGCTATATACATTTACCTTTTAAGAGGAGGAAT | 0.667 |  |  |

| Sequence | cleaved RNA product abundance [1] | cleaved RNA product abundance [2] | also measured |
| --- | --- | --- | --- |
| CGACATGTCCCGCTTCTTTCATTAATCCGTTAGCAACTGTTTTGCTAAATACATTTGCCTTTTAAGAGGAGGAAT | 0.22 |  |  |
| ACAGACGAAGGAGCCGCAAAGAAGATATTAAGGGATGAATAATCCCTCAATATAAAAATCTCTCACTTATTTAAA |  | 0.576 |  |
| ACAGACGAAGGAGCCGCAAAGAAGTTATCAAGTGATGAATAATCCCTCAATATAAATATCTCTCACTTATTTAAA |  | 0.0945 |  |
| ACAGACGAAGGAGCCGCAAAGAAGTTATTAAGGGATGAATAATTCCTGAATATAAATATCTCTCACTTATTTAAA |  | 0.471 |  |
| ACAGACGAAGGAGCCGCAAAGAAGTTATTAAGGGATGAATAATCACTCGATATAAATATCTCTCACTTATTTAAA |  | 0.0689 |  |
| ACAGACGAAGGAGCCGCAAAGAAGTTATTAAGAGATGAATAATACCTCAATATAAATATCTCTCACTTATTTAAA |  | 0.109 | cleaved RNA product abundance [3]: 0.106 |
| ACAGACGAAGGAGCCGCAAAGAATTTATTAAGGGATGAATAATCCCTCAATATAAATAACTCTCACTTATTTAAA |  | 0.544 |  |
| ACAGACGAAGGAGCCGCAAAGAATTTATTAAGGGATGAATAATCCCTCAATAAAAATATCTCTCACTTATTTAAA |  | 0.066 |  |
| CGACATGTCCCGCTTCTTTCATTAATCCGTTAGCAACTGTTTTGCTATATACATTAACCGTTTAAGAGGAGGAAT | 0.934 |  |  |
| ACAGACGAAGGAGCCGCAAAGAAGTTATTAAGGAATGAATAATCCCTCAATTTAAATATCTCTCACTTATTTAAA |  | 0.0591 | cleaved RNA product abundance [3]: 0.0901 |
| CGACATGTCCCGCTTCTTTCATTAATCCGTTAGCAACTGTTTTGCAATATACCTTTACCTTTTAAGAGGAGGAAT | 0.29 |  |  |
| CGACATGTCCCGCTTCTTTCATTAATCCGTGATCAACTGTTTTGCTATATACATTTACCTTTTAAGAGGAGGAAT | 0.346 |  |  |
| ACAGACGAAGGAGCCGCAAAGAAGTTATTTAAGGATGAATAATCCCTCAATATAAATATCTCTCACTTATTTAAA |  | 0.182 | cleaved RNA product abundance [3]: 0.125 |
| CGACATGTCCCGCTTCTTTCATTAATCCGTTAGCAACTGATTTGCTATAAACATTTACCTTTTAAGAGGAGGAAT | 0.686 |  |  |
| ACAGACGAAGGAGCCGCAAAGAAGTTATTAAGGGATGAAAAATCCCTAAATATAAATATCTCTCACTTATTTAAA |  | 0.445 | cleaved RNA product abundance [3]: 0.499 |
| ACAGACGAAGGAGCCGCAAAGAAGTTATTAAGTCATGAATAATCCCTCAATATAAATATCTCTCACTTATTTAAA |  | 0.106 | cleaved RNA product abundance [3]: 0.0957 |
| CGACATGTCCCGCTTCTTTCATTAATCCCTTAGCAACTGTTTAGCTATATACATTTACCTTTTAAGAGGAGGAAT | 0.236 |  |  |
| ACAGACGAAGGAGCCGCAAAGAAGTTATTAAGGGATGAATATTCCTTCAATATAAATATCTCTCACTTATTTAAA |  | 0.546 |  |
| ACAGACGAAGGAGCCGCAACGAAGTTATTAAGGGATGAATTATCCCTCAATATAAATATCTCTCACTTATTTAAA |  | 0.91 |  |

Reference: the supplement of paper PMC11780869
